Results published in PMC8857481.

Target: FLAG-METTL5-G61D (human) (UniProt Q9NRN9)
Assay: co-IP; anti-FLAG M2 beads in clarified lysate of transfected HeLa cells, 1 h at 4 °C; 50 mM Tris pH 7.4, 150 mM NaCl, 10% glycerol, 1.5 mM MgCl2, 0.5 mM EDTA, 0.2% NP-40, 1 mM DTT; three washes; Western blot with anti-FLAG and anti-TRMT112

Chain of UniProt Q9NRN9 (Q9NRN9 whole entry G61D): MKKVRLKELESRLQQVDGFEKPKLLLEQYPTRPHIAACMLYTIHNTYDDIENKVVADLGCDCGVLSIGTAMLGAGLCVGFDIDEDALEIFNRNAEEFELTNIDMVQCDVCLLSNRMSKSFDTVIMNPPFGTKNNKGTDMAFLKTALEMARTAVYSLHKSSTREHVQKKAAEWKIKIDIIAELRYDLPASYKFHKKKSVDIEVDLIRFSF

B1: TRMT112 (natural protein)
chain: MKLLTHNLLSSHVRGVGSRGFPLRLQATEVRICPVEFNPNFVARMIPKVEWSAFLEAADNLRLIQVPKGPVEGYEENEEFLRTMHHLLLEVEVIEGTLQCPESGRMFPISRGIPNMLLSEEETES
TRMT112 bound relative to that bound to FLAG-METTL5-WT: 5 to 15%
